Bridge positions count the residues as written; N and C are the ends. Ends that are not written are not given here.
Experiments:
p32 [1] = target: T1, p32 (Homo sapiens, UniProt Q07021); assay: Fluorescence polarization assay with synthetic peptides on p32; format: binding; conditions: for inhibition of binding of labeled TT1 to P32 by unlabeled peptide: competition, fluorescence polarization
T1 construct: made in house; host or cells: E. coli Rosetta-gami-2 (Novagen)
T1 sequence (Q07021 74-282): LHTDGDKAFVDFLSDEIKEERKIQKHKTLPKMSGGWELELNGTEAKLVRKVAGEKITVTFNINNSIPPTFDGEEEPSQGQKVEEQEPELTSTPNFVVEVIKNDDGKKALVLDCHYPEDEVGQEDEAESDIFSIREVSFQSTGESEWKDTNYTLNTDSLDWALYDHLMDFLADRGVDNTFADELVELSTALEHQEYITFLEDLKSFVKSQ
From the text: (§1) FIGS. 4A and 4B are plots showing a comparison of the binding of LyP-1 (SEQ ID NO: 7; diamonds) and TT1 (SEQ ID NO: 3; squares) to p32 in a fluorescence polarization assay. […] NRP-1 was used as a control protein.
FIG. 5 is a plot showing that P32-TT1 (CKRGARSTC; SEQ ID NO: 3) and LyP-1 (SEQ ID NO: 7) peptides competed for binding to the P32 protein. […] Squares: p32-TT1; Diamonds: LyP-1; X: RPARPAR peptide (SEQ ID NO: 14).
(§2) An exemplary RGXRS (SEQ ID NO: 4) pentapeptide motif-containing peptide with the sequence CKRGARSTC (SEQ ID NO: 3) was designated as the […] and used it for further studies. Mutating any amino acid in the consensus motif of TT1 abolished the phage binding to p32. This new peptide conferred about 15-fold stronger phage binding to immobilized p32 protein than did the canonical LyP-1 peptide.

[2] = system: orthotopic MCF10CA1a breast tumor xenografts; assay: Tumor homing and penetration of peptide-conjugated nanoworms (NWs); format: in vivo, athymic nude mice
Protocol: FIG. 12 is a fluorescent micrograph showing tumor homing of linear TT1-NWs. Tumor-bearing mice were intravenously injected with FAM-LinTT1-coated NWs (7.5 mg iron/kg) and allowed to circulate for 5 hours. The mice were perfused through the heart with PBS, and tumors and organs were collected and processed for fluorescence microscopy. The left panel is a representative confocal microscopy image from tumors in mice. […]
FIG. 13 is a bar graph showing quantification of the homing of various peptide-coated NWs. […] Quantification of fluorescence was done with ImageJ software (available from the website of the United States National Institutes of Health). In addition to the tumors, NWs were detected in the liver and spleen, which non-specifically capture nanoparticles regardless of their peptide coating. […]
FIG. 15 is a bar graph showing tumor accumulation of NWs coated with chimeric peptides consisting of a homing peptide and pro-apoptotic peptide. Quantification of NW fluorescence was done with ImageJ software. […]
In vivo peptide homing. […] After 5-6 hours of NW circulation the mice were euthanized by cardiac perfusion with PBS under anesthesia, and tumors and organs were dissected and analyzed for particle homing.
Immunofluorescence. […] The primary antibody was detected with Alexa 594-labeled goat anti-rat secondary antibody (1:1000; Molecular Probes). […]

p32 [3] = target: T1, p32; assay: Binding of peptide-displaying T7 phage to p32-coated magnetic beads; conditions: p32-coated magnetic beads
Protocol: FIG. 10 is a bar graph showing that the p32 binding of the RGXR(S/T) motif (SEQ ID NOs: 4 and 5) in the exemplary TT1 peptide (SEQ ID NO: 3) was not dependent on the cyclic structure and compatible with flanking sequences. Phage clones displaying the indicated peptides were incubated in p32-coated magnetic microbeads. After washing to remove non-bound phage, specifically bound phage were quantified.
Milligram quantities of recombinant His-tagged p32 protein were expressed in E. coli and coated onto Ni-NTA magnetic beads, and biopanning was performed using two T7 bacteriophage peptide libraries (cyclic Cx7C and linear X7 library).
Variant peptide-encoding genomic DNA of phage was sequenced and analyzed for the presence of consensus motifs. After two rounds of selection, both linear and cyclic libraries converged to contain an RGXRS (SEQ ID NO: 4) pentapeptide motif (see FIG. 2B). The binding of RGXRS (SEQ ID NO: 4)-displaying phage to p32 was specific, as these phage bound to magnetic beads coated with p32 protein and not to beads coated with ligand-binding b1b2 domain of the cell and tissue penetration receptor NRP-1 or BSA (see FIG. 3).
as §2

atherosclerotic plaques = assay: Homing to atherosclerotic plaques in ApoE null mice on high-fat diet; format: in vivo; conditions: 100 mg FAM labeled peptide i.v., one hour
Protocol: ApoE null mice that had been kept on a high-fat diet were intravenously injected with […] of the FAM labeled peptides. One hour later, the mice were perfused through the heart under anesthesia, and tissues were collected. The panels show accumulation of FAM labeled peptides visualized with UV excitation. The center two and right two panels show atherosclerotic aortas that were sectioned at the aortic root level and examined by confocal microscopy.

orthotopic breast tumors = conditions: systemically administered; cited from earlier work
mitochondrial membranes = conditions: significantly less than the concentration required to kill eukaryotic cells; cited from earlier work
NRP-1 = NRP-1 (Homo sapiens, UniProt O14786); assay: Fluorescence polarization assay on NRP-1 (control protein); format: binding; conditions: NRP-1 as control protein
From the text: as §1

Sequence of NRP-1 (O14786 22-923): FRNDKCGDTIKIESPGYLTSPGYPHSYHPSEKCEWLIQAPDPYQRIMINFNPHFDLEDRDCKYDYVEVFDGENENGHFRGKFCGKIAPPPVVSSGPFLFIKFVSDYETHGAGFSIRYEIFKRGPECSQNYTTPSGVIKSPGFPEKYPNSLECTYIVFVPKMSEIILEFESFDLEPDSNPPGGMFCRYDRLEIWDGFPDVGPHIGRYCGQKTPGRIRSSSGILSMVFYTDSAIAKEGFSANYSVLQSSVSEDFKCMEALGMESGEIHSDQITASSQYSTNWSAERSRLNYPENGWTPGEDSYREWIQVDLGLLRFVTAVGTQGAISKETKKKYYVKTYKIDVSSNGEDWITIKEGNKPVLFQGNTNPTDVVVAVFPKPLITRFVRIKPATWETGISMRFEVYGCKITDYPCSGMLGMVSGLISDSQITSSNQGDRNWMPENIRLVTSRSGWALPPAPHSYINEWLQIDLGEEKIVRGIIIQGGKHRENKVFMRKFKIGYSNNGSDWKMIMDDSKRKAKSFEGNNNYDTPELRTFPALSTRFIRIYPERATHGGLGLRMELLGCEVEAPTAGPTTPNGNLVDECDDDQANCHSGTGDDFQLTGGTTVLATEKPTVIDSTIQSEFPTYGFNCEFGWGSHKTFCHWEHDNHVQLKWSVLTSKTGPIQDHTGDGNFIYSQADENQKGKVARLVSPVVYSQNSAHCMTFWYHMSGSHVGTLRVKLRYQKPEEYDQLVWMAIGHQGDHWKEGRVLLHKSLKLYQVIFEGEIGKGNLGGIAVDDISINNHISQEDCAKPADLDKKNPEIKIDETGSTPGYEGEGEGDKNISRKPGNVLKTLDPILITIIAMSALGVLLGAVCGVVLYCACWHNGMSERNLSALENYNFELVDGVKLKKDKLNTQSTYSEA

Substance: AKRGARSTA [LinTT1]
- affinity for p32 (in words) (p32 [1]; method not stated at the place): low affinity for the receptor
- tumor homing of peptide-coated NWs (in words) ([2]; 7.5 mg iron/kg i.v., 5 hours circulation): most effective peptide in the nanoparticle context
- phage binding to p32 (in words) (p32 [3]; listed as TT1 Peptide variant): retains the binding activity
- phage binding to p32 (in words) (p32 [3]; listed as TT1 variant): retained the binding activity

Substance: CGNKRTRGC (disulfide 1-9 (inferred)) [LyP-1, reference compound]
- homing to and penetration into plaque tissue (atherosclerotic plaques): seen inside plaques
- inhibition of binding of labeled TT1 to P32 by unlabeled peptide (p32 [1]): could be inhibited
- tumor homing and extravascular penetration of homing peptide-D[KLAKLAK]2 NWs (in words) ([2]; homing peptide-D[KLAKLAK]2 chimeric peptide on NWs): more effective than the CGKRK
- homing to and penetration of orthotopic breast tumors (orthotopic breast tumors): efficiently home to and penetrate orthotopic breast tumors in vivo

Substance: CRGDKGPDC [iRGD]
- homing to and penetration of orthotopic breast tumors (orthotopic breast tumors): efficiently home to and penetrate orthotopic breast tumors in vivo

Substance: KLAKLAKKLAKLAK (also: D-amino acids, positions not given here) [D(KLAKLAK)2]
- concentration inducing marked mitochondrial swelling (mitochondrial membranes): 10 µM

Substance: RPARPAR [reference compound]
- inhibition of binding of labeled TT1 to P32 by unlabeled peptide (p32 [1]): not
- binding to NRP-1 in fluorescence polarization assay (in words) (NRP-1): avidly bound to NRP-1

From patent publication US12195558B2, “Targeted delivery system and methods of use therefor” (SANFORD BURNHAM PREBYS MEDICAL DISCOVERY INSTITUTE, priority 2015, dated 2025)
